Blank lines part the entries; values can stand above or below the binder they belong to.
Assays:
Settings in all cases: both partners purified
[1] = biological target: T1, human ULBP6-02 extracellular domain (residues R26-G218) (human, UniProt Q5VY80 26-218, glycosylation of residues N68 and N82 (in the crystal structure)); assay: SPR; Biacore 8K or 8K+, 37°C; Fc-tagged human NKG2D (0.5 μg/mL) captured on Series S Sensor Protein A chip to about 25 RU; threefold serial dilutions of NKG2DLs injected at 30 μL/minute in HBS-P (0.01 mol/L HEPES pH 7.4, 0.15 mol/L NaCl, 0.005% P20); KD from steady-state fit
T1 construct: the construct of the SPR with NKG2D and of the cell assays is only called ULBP6-02 or recombinant ULBP6-02; also called sULBP6-02; sULBP6; source: recombinant, 23andMe, Inc; mammalian expression system
T1 sequence (looked up): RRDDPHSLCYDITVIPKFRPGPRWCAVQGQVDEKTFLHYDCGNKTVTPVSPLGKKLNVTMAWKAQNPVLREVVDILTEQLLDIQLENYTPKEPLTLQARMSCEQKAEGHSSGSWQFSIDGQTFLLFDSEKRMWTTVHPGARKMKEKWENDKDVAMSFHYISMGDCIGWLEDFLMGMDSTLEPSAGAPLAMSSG

biotinylated ULBP6-02 = biotinylated ULBP6-02 (human, UniProt Q5VY80, biotin); assay: ELISA; blocking assay: plates coated with Fc-tagged NKG2D; biotinylated ULBP5 (1.55 nmol/L) or ULBP6-02 (0.15 nmol/L) at its EC80 precomplexed with 23ME-01473 and transferred to the plates; IC50 from dose-response fit
biotinylated ULBP5 = biotinylated ULBP5 (human, UniProt Q6H3X3, biotin); assay: as above
human ULBP1 = human ULBP1 (Homo sapiens (Human)., UniProt Q9BZM6); assay: SPR; 23ME-01473 and human ULBPs, as described for NKG2D (Biacore, 37°C, Protein A chip, HBS-P, ligands injected); one-to-one Langmuir model, KD = kd/ka
human ULBP3 = human ULBP3 (Homo sapiens (Human)., UniProt Q9BZM4); assay: as above
human ULBP2 = human ULBP2 (Homo sapiens (Human)., UniProt Q9BZM5); assay: as above
human ULBP5 = human ULBP5 (Homo sapiens (Human)., UniProt Q6H3X3); assay: as above
[2] = biological target: human ULBP6 (allelic isoform not stated) (Homo sapiens, ULBP6-02 allele (R26, …, UniProt Q5VY80)); assay: as above

Sequence of human ULBP2 (Q9BZM5 26-217): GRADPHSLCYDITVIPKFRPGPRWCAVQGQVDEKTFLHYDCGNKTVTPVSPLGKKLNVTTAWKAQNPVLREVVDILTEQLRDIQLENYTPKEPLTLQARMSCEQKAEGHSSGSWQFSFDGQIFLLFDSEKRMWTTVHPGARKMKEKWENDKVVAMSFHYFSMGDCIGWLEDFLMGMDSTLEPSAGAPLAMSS
Sequence of biotinylated ULBP5 (Q6H3X3 26-218): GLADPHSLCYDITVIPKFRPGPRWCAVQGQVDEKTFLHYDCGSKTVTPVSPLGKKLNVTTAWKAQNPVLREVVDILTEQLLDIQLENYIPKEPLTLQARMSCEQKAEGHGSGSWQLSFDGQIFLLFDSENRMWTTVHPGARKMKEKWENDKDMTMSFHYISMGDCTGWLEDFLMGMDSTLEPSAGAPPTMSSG
Sequence of human ULBP5 (Q6H3X3 26-218): as above
Sequence of human ULBP3 (Q9BZM4 30-217): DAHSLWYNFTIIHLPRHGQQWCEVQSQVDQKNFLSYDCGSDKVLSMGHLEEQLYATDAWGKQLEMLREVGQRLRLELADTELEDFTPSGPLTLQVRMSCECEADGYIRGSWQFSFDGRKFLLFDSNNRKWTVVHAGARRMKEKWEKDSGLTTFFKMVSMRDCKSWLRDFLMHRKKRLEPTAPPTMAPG
Sequence of human ULBP1 (Q9BZM6 26-216): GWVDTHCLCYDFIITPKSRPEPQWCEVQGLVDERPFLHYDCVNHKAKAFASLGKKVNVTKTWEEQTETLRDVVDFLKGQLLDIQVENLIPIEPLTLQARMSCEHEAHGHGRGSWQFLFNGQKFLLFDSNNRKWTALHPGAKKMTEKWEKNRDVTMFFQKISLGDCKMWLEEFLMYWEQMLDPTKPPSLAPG

binding result [1]: binds
B1: Fc-tagged human NKG2D (Fc fusion, UniProt P26718 73-216, looked up)
chain: IWSAVFLNSLFNQEVQIPLTESYCGPCPKNWICYKNNCYQFFDESKNWYESQASCMSQNASLLKVYSKEDQDLLKLVKSYHWMGLVHIPTNGSWQWEDGSILSPNLLTIIEMQKGDCALYASSFKGYIENCSTPNTYICMQRTV
notes: NK group 2D receptor (NKG2D), human; also called Fc-tagged NKG2D

IC50 (biotinylated ULBP6-02): 0.04 nM
IC50 (biotinylated ULBP5): 0.31 nM
binding result (human ULBP1): no binding
binding result (human ULBP3): no binding
Kd (human ULBP2): 0.23 nM
Kd (human ULBP5): 1.92 nM
Kd [2]: 0.053 nM
B2: 23ME-01473, humanized Fc effector-enhanced (afucosylated) anti-ULBP6/2/5 antibody (antibody, V domains shown)
VH: EVQLVESGGGLVQPGGSLRLSCAASGFTFSTYGFHWVRQAPGKGLEWVAYISSNSGTIDYADTVKGRFTISRDNAKNSLYLQMNSLRAEDTAVYYCARQGYGFDNWGQGTTVTVSS
VL: DIQLTQSPSSLSASVGDRVTITCSASSRVSYMNWYQQKPGKSPKIWVYGISNLASGVPSRFSGSGSGTDFTFTISSLQPEDIATYYCQQRSSHPLTFGGGTKVEIK
notes: variable domain as in the heavy chain of the Fab m2; human IgG1 heavy constant region; as the light chain of m2; Humanized by CDR grafting from a mouse hybridoma clone; also called Fc-enhanced anti-ULBP6/2/5 antibody; source: CHO FUT8-KO, transfected, purified (Protein A, SEC Superdex 200)
